Earlier results as cited in paper PMC4752257.

Molecular target: IL-4R alpha (Homo sapiens) (UniProt P24394)
Sequence of UniProt P24394 (P24394 26-232): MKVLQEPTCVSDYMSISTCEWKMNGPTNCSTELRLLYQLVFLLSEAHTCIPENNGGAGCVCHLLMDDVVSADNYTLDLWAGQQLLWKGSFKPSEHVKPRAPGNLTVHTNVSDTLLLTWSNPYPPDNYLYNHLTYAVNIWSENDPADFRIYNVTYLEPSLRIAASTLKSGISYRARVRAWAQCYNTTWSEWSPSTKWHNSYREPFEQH

For IL-4 (from UniProt P05112), the Kd is listed as 0.6 nM.
